Laboratory results reported in the RNAGym collection of RNA variant scans (doi:10.1101/gr.219683.116).

B1: mRNA-splicing (parent)
chain: AGUUGCUGCUGGGAGCUCCAGCACAGUGAAAUGGACAGAAGGGCAGAGCAA

Variants of: B1
Test: exon inclusion enrichment index; higher = more inclusion; WT1 exon 5 minigene, HEK293

Row | Variant | exon inclusion enrichment index
1 | G5A C6G U7G C9A G11U G12C | 0.00339
2 | G5A C6G U7G C9A G11U G12U | 0.000733
3 | G5A C6G U7G C9A G12A | 0.000801
4 | G5A C6G U7G C9A G12A G13A | 0.00149
5 | G5A C6G U7G C9A G12A G13C | 0.0057
6 | G5A C6G U7G C9A G12A G13U | 0.00417
7 | G5A C6G U7G C9A G12C | 0.00529
8 | G5A C6G U7G C9A G12C G13A | 0.00586
9 | G5A C6G U7G C9A G12C G13C | 0.00164
10 | G5A C6G U7G C9A G12C G13U | 0.000686
11 | G5A C6G U7G C9A G12U | 0.00152
12 | G5A C6G U7G C9A G12U G13A | 0.000517
13 | G5A C6G U7G C9A G12U G13C | 0.00117
14 | G5A C6G U7G C9A G12U G13U | 0.000533
15 | G5A C6G U7G C9A G13A | 0.0025
16 | G5A C6G U7G C9A G13A A14C | 0.0219
17 | G5A C6G U7G C9A G13A A14G | 0.00529
18 | G5A C6G U7G C9A G13A A14U | 0.0021
19 | G5A C6G U7G C9A G13C | 0.00103
20 | G5A C6G U7G C9A G13C A14C | 0.00967
21 | G5A C6G U7G C9A G13C A14G | 0.00374
22 | G5A C6G U7G C9A G13C A14U | 0.0025
23 | G5A C6G U7G C9A G13U | 0.000555
24 | G5A C6G U7G C9A G13U A14C | 0.00403

Row | Variant | exon inclusion enrichment index
25 | G5A C6G U7G C9A G13U A14G | 0.00052
26 | G5A C6G U7G C9A G13U A14U | 0.000524
27 | G5A C6G U7G C9A G15A | 0.00165
28 | G5A C6G U7G C9A G15A C16A | 0.000736
29 | G5A C6G U7G C9A G15A C16G | 0.00097
30 | G5A C6G U7G C9A G15A C16U | 0.000755
31 | G5A C6G U7G C9A G15C | 0.00583
32 | G5A C6G U7G C9A G15C C16A | 0.00139
33 | G5A C6G U7G C9A G15C C16G | 0.004
34 | G5A C6G U7G C9A G15C C16U | 0.000839
35 | G5A C6G U7G C9A G15U | 0.000857
36 | G5A C6G U7G C9A G15U C16A | 0.00611
37 | G5A C6G U7G C9A G15U C16G | 0.00106
38 | G5A C6G U7G C9A G15U C16U | 0.000743
39 | G5A C6G U7G C9A G21A | 0.00299
40 | G5A C6G U7G C9A G21A C22A | 0.000944
41 | G5A C6G U7G C9A G21A C22G | 0.00502
42 | G5A C6G U7G C9A G21A C22U | 0.00087
43 | G5A C6G U7G C9A G21C | 0.00079
44 | G5A C6G U7G C9A G21C C22A | 0.00656
45 | G5A C6G U7G C9A G21C C22G | 0.00387
46 | G5A C6G U7G C9A G21C C22U | 0.00338
47 | G5A C6G U7G C9A G21U | 0.00149
48 | G5A C6G U7G C9A G21U C22A | 0.00074

Row | Variant | exon inclusion enrichment index
49 | G5A C6G U7G C9A G21U C22G | 0.000869
50 | G5A C6G U7G C9A G21U C22U | 0.00236
51 | G5A C6G U7G C9A G26A | 0.00477
52 | G5A C6G U7G C9A G26A U27A | 0.00661
53 | G5A C6G U7G C9A G26A U27C | 0.0139
54 | G5A C6G U7G C9A G26A U27G | 0.00208
55 | G5A C6G U7G C9A G26C | 0.00298
56 | G5A C6G U7G C9A G26C U27A | 0.00255
57 | G5A C6G U7G C9A G26C U27C | 0.0114
58 | G5A C6G U7G C9A G26C U27G | 0.0205
59 | G5A C6G U7G C9A G26U | 0.00112
60 | G5A C6G U7G C9A G26U U27A | 0.00104
61 | G5A C6G U7G C9A G26U U27C | 0.0253
62 | G5A C6G U7G C9A G26U U27G | 0.00474
63 | G5A C6G U7G C9A G28A | 0.000725
64 | G5A C6G U7G C9A G28A A29C | 0.00171
65 | G5A C6G U7G C9A G28A A29G | 0.000786
66 | G5A C6G U7G C9A G28A A29U | 0.000814
67 | G5A C6G U7G C9A G28C | 0.00255
68 | G5A C6G U7G C9A G28C A29C | 0.00678
69 | G5A C6G U7G C9A G28C A29G | 0.0115
70 | G5A C6G U7G C9A G28C A29U | 0.00174
71 | G5A C6G U7G C9A G28U | 0.000687
72 | G5A C6G U7G C9A G28U A29C | 0.000797

Row | Variant | exon inclusion enrichment index
73 | G5A C6G U7G C9A G28U A29G | 0.00238
74 | G5A C6G U7G C9A G28U A29U | 0.000755
75 | G5A C6G U7G C9A G33A | 0.000879
76 | G5A C6G U7G C9A G33A G34A | 0.000844
77 | G5A C6G U7G C9A G33A G34C | 0.000823
78 | G5A C6G U7G C9A G33A G34U | 0.000917
79 | G5A C6G U7G C9A G33C | 0.00196
80 | G5A C6G U7G C9A G33C G34A | 0.000739
81 | G5A C6G U7G C9A G33C G34C | 0.0007
82 | G5A C6G U7G C9A G33C G34U | 0.00222
83 | G5A C6G U7G C9A G33U | 0.000815
84 | G5A C6G U7G C9A G33U G34A | 0.000839
85 | G5A C6G U7G C9A G33U G34C | 0.00131
86 | G5A C6G U7G C9A G33U G34U | 0.000939
87 | G5A C6G U7G C9A G34A | 0.00215
88 | G5A C6G U7G C9A G34A A35C | 0.00134
89 | G5A C6G U7G C9A G34A A35G | 0.00114
90 | G5A C6G U7G C9A G34A A35U | 0.00125
91 | G5A C6G U7G C9A G34C | 0.000973
92 | G5A C6G U7G C9A G34C A35C | 0.00219
93 | G5A C6G U7G C9A G34C A35G | 0.00232
94 | G5A C6G U7G C9A G34C A35U | 0.00103
95 | G5A C6G U7G C9A G34U | 0.000859
96 | G5A C6G U7G C9A G34U A35C | 0.000948

Row | Variant | exon inclusion enrichment index
97 | G5A C6G U7G C9A G34U A35G | 0.00131
98 | G5A C6G U7G C9A G34U A35U | 0.00101
99 | G5A C6G U7G C9A G38A | 0.000584
100 | G5A C6G U7G C9A G38A A39C | 0.0024
101 | G5A C6G U7G C9A G38A A39G | 0.000899
102 | G5A C6G U7G C9A G38A A39U | 0.00074
103 | G5A C6G U7G C9A G38C | 0.000603
104 | G5A C6G U7G C9A G38C A39C | 0.00466
105 | G5A C6G U7G C9A G38C A39G | 0.00244
106 | G5A C6G U7G C9A G38C A39U | 0.000965
107 | G5A C6G U7G C9A G38U | 0.000717
108 | G5A C6G U7G C9A G38U A39C | 0.000723
109 | G5A C6G U7G C9A G38U A39G | 0.00105
110 | G5A C6G U7G C9A G38U A39U | 0.000926
111 | G5A C6G U7G C9A G41A | 0.0013
112 | G5A C6G U7G C9A G41A G42A | 0.0013
113 | G5A C6G U7G C9A G41A G42C | 0.0072
114 | G5A C6G U7G C9A G41A G42U | 0.00291
115 | G5A C6G U7G C9A G41C | 0.013
116 | G5A C6G U7G C9A G41C G42A | 0.00376
117 | G5A C6G U7G C9A G41C G42C | 0.0196
118 | G5A C6G U7G C9A G41C G42U | 0.0271
119 | G5A C6G U7G C9A G41U | 0.000489
120 | G5A C6G U7G C9A G41U G42A | 0.000614

Row | Variant | exon inclusion enrichment index
121 | G5A C6G U7G C9A G41U G42C | 0.00698
122 | G5A C6G U7G C9A G41U G42U | 0.00223
123 | G5A C6G U7G C9A G42A | 0.025
124 | G5A C6G U7G C9A G42A G43A | 0.0419
125 | G5A C6G U7G C9A G42A G43C | 0.0943
126 | G5A C6G U7G C9A G42A G43U | 0.0457
127 | G5A C6G U7G C9A G42C | 0.0041
128 | G5A C6G U7G C9A G42C G43A | 0.0348
129 | G5A C6G U7G C9A G42C G43C | 0.0141
130 | G5A C6G U7G C9A G42C G43U | 0.00749
131 | G5A C6G U7G C9A G42U | 0.00622
132 | G5A C6G U7G C9A G42U G43A | 0.00514
133 | G5A C6G U7G C9A G42U G43C | 0.0126
134 | G5A C6G U7G C9A G42U G43U | 0.00686
135 | G5A C6G U7G C9A G43A | 0.00629
136 | G5A C6G U7G C9A G43A C44A | 0.0069
137 | G5A C6G U7G C9A G43A C44G | 0.0259
138 | G5A C6G U7G C9A G43A C44U | 0.00188
139 | G5A C6G U7G C9A G43C | 0.00197
140 | G5A C6G U7G C9A G43C C44A | 0.0166
141 | G5A C6G U7G C9A G43C C44G | 0.0277
142 | G5A C6G U7G C9A G43C C44U | 0.000823
143 | G5A C6G U7G C9A G43U | 0.00185
144 | G5A C6G U7G C9A G43U C44A | 0.00143

Row | Variant | exon inclusion enrichment index
145 | G5A C6G U7G C9A G43U C44G | 0.000892
146 | G5A C6G U7G C9A G43U C44U | 0.00214
147 | G5A C6G U7G C9A G46A | 0.00583
148 | G5A C6G U7G C9A G46A A47C | 0.00647
149 | G5A C6G U7G C9A G46A A47G | 0.00174
150 | G5A C6G U7G C9A G46A A47U | 0.00359
151 | G5A C6G U7G C9A G46C | 0.00111
152 | G5A C6G U7G C9A G46C A47C | 0.00161
153 | G5A C6G U7G C9A G46C A47G | 0.00214
154 | G5A C6G U7G C9A G46C A47U | 0.00364
155 | G5A C6G U7G C9A G46U | 0.000617
156 | G5A C6G U7G C9A G46U A47C | 0.0165
157 | G5A C6G U7G C9A G46U A47G | 0.00156
158 | G5A C6G U7G C9A G46U A47U | 0.00177
159 | G5A C6G U7G C9A G48A | 0.000556
160 | G5A C6G U7G C9A G48C | 0.00243
161 | G5A C6G U7G C9A G48U | 0.00708
162 | G5A C6G U7G C9A U10A | 0.00068
163 | G5A C6G U7G C9A U10A G11A | 0.00112
164 | G5A C6G U7G C9A U10A G11C | 0.0223
165 | G5A C6G U7G C9A U10A G11U | 0.00545
166 | G5A C6G U7G C9A U10C | 0.00449
167 | G5A C6G U7G C9A U10C G11A | 0.0011
